Source: the supplement of paper PMC10598134
± gives the standard deviation.

Assay: collision cross section of modified peptide (TIMS, N2, iRT-aligned); higher = larger / more extended gas-phase ion
In short: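 Synthetic peptide pools (~100 fmol/µL in 2% acetonitrile/0.1% formic acid, iRT standard spiked 1:40) were separated on a 120-min nanoflow C18 gradient at 60 °C. They were analysed on a timsTOF Pro/HT (dda-PASEF, nitrogen, ~2.4 mbar) and identified with MaxQuant. 1/K0 was calibrated with three reference ions and aligned run-wise to the median iRT peptide deviation. Collision cross section came from the Mason-Schamp equation, averaging 1–3 technical replicates of the most abundant feature per charge state.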

[1] = charge state: 2, modification: Butyryl
[2] = charge state: 3, modification: Butyryl
[3] = charge state: 2, modification: Nitro (Y)
[4] = charge state: 2, modification: Malonyl
[5] = charge state: 2, modification: Phospho (Y)
[6] = charge state: 3, modification: Dimethyl (K)
[7] = charge state: 3, modification: Glutarylation
[8] = charge state: 3, modification: Hydroxyproline
[9] = charge state: 2, modification: Crotonyl
[10] = charge state: 3, modification: Crotonyl
[11] = charge state: 2, modification: Methyl (K)
[12] = charge state: 3, modification: Methyl (K)
[13] = charge state: 2, modification: GlyGly (K)
[14] = charge state: 3, modification: GlyGly (K)
[15] = charge state: 2, modification: Succinyl
[16] = charge state: 3, modification: Methyl (R)
[17] = charge state: 3, modification: Phospho (Y)
[18] = charge state: 3, modification: Nitro (Y)
[19] = charge state: 2, modification: hydroxyisobutyryl
[20] = charge state: 3, modification: hydroxyisobutyryl
[21] = charge state: 2, modification: Hydroxyproline
[22] = charge state: 2, modification: Glutarylation
[23] = charge state: 3, modification: Malonyl
[24] = charge state: 2, modification: Dimethyl (K)
[25] = charge state: 2, modification: Methyl (R)
[26] = charge state: 2, modification: Formyl

With “TEVLSPNSKVESK [_TEVLSPNSK(Butyryl)VESK_]” the collision cross section [1] was 418.57 ± 0.77 Å² and the collision cross section [2] was 463.23 ± 20 Å².

SYVDTGGVSR [_SY(Nitro (Y))VDTGGVSR_] gave a collision cross section [3] of 342.4 ± 0.16 Å².

Work on SGFGKFER [_SGFGK(Malonyl)FER_] yielded a collision cross section [4] of 335.56 Å².

YTTNNSSEQR [_Y(Phospho (Y))TTNNSSEQR_] showed a collision cross section [5] of 363.91 ± 0.65 Å².

For “IDLPAENSNSETIIITGKR [_IDLPAENSNSETIIITGK(Dimethyl (K))R_]”, the collision cross section [6] was 568.21 ± 0.55 Å².

“VFIGNLNTLVVKKK [_VFIGNLNTLVVK(Gluratylation)KK_]” showed a collision cross section [7] of 521.05 ± 1.8 Å².

Work on “GDTGLPGPQGIPGGVGSPGR [_GDTGLPGPQGIPGGVGSP(Hydroxyproline)GR_]” yielded a collision cross section [8] of 499.06 ± 39 Å².

With “DAEAAEATAEGALKAEK [_DAEAAEATAEGALK(Crotonyl)AEK_]” the collision cross section [9] was 474.87 ± 0.81 Å² and the collision cross section [10] was 545.42 ± 1.3 Å².

For TTEETSKPK [_TTEETSK(Methyl (K))PK_], the collision cross section [11] was 342.29 ± 0.79 Å² and the collision cross section [12] was 431.66 Å².

In the case of “IHVQSSSDSSDEPAEKR [_IHVQSSSDSSDEPAEK(GlyGly (K))R_]”, the collision cross section [13] is reported as 469.51 Å² and the collision cross section [14] is reported as 539.73 ± 0.58 Å².

With “VYIASSSGSTAIKK [_VYIASSSGSTAIK(Butyryl)K_]” the collision cross section [1] was 422.89 ± 0.77 Å² and the collision cross section [2] was 508.32 ± 2.9 Å².

With “GEVGAGAGPGAQAGPSAKR [_GEVGAGAGPGAQAGPSAK(Acetyl (K))R_]” the collision cross section (charge state: 2, modification: Acetyl (K)) was 420.33 ± 2.6 Å² and the collision cross section (charge state: 3, modification: Acetyl (K)) was 478.86 ± 2.4 Å².

In the case of TLQKQSVVYGGK [_TLQK(Succinyl)QSVVYGGK_], the collision cross section [15] is reported as 397.13 ± 0.77 Å².

For “HFGPVPPSQGRGR [_HFGPVPPSQGR(Methyl (R))GR_]”, the collision cross section [16] was 491.26 ± 0.38 Å².

With “AAGQPYEQHAK [_AAGQPY(Phospho (Y))EQHAK_]” the collision cross section [5] was 368.83 ± 10 Å² and the collision cross section [17] was 436.55 Å².

Sequence AYGELPEHAK [_AY(Nitro (Y))GELPEHAK_] has a collision cross section [3] of 361.5 ± 1.2 Å² and a collision cross section [18] of 445.86 ± 1.2 Å².

Sequence “TQAYQDQKPGTSGLR [_TQAYQDQK(hydroxyisobutyryl)PGTSGLR_]” has a collision cross section [19] of 431.22 ± 0.52 Å² and a collision cross section [20] of 484.99 ± 2.8 Å².

Work on “GSLGAQKLANTCFNEIEK [_GSLGAQK(Succinyl)LANTCFNEIEK_]” yielded a collision cross section [15] of 470.21 ± 0.66 Å².

Work on SVSSSSYR [_SVSSSSY(Phospho (Y))R_] yielded a collision cross section [5] of 317.55 ± 0.69 Å².

For “VGIDTPDIDIHGPEGKLK [_VGIDTPDIDIHGPEGK(hydroxyisobutyryl)LK_]”, the collision cross section [19] was 500.35 ± 0.99 Å² and the collision cross section [20] was 542.95 ± 2 Å².

In the case of “LGGDLGTYVINK [_LGGDLGTY(Nitro (Y))VINK_]”, the collision cross section [3] is reported as 371.97 ± 0.72 Å².

With ISALQGKLSK [_ISALQGK(Methyl (K))LSK_] the collision cross section [11] was 354.46 ± 1.1 Å² and the collision cross section [12] was 434.86 ± 2.4 Å².

Sequence VVPGYGHAVLR [_VVPGY(Nitro (Y))GHAVLR_] has a collision cross section [3] of 383.51 ± 0.17 Å² and a collision cross section [18] of 449.51 ± 1.1 Å².

With “GRGTGEAEEEYVGPR [_GR(Citrullination (R))GTGEAEEEYVGPR_]” the collision cross section (charge state: 2, modification: Citrullination (R)) was 411.48 ± 0.42 Å² and the collision cross section (charge state: 3, modification: Citrullination (R)) was 487 ± 5.6 Å².

VVDLLAPYAK [_VVDLLAPY(Nitro (Y))AK_] showed a collision cross section [3] of 371.07 ± 0.55 Å².

For “LGPPGNPGPSGSPGPK [_LGPPGNP(Hydroxyproline)GPSGSPGPK_]”, the collision cross section [21] was 386.54 ± 0.27 Å² and the collision cross section [8] was 431.89 Å².

With “DYSAPVNFISAGLKK [_DYSAPVNFISAGLK(Gluratylation)K_]” the collision cross section [22] was 441.44 ± 0.95 Å² and the collision cross section [7] was 535.69 ± 1.8 Å².

“SLKLNTAEDAK [_SLK(Gluratylation)LNTAEDAK_]” gave a collision cross section [22] of 381.67 ± 0.53 Å².

“DKALPLEAEVAPVK [_DK(Malonyl)ALPLEAEVAPVK_]” gave a collision cross section [4] of 414.83 ± 0.6 Å².

With “DYSSGFGGKYGVQADR [_DYSSGFGGK(Methyl (K))YGVQADR_]” the collision cross section [11] was 432 Å² and the collision cross section [12] was 489.11 ± 2.4 Å².

“ITESVAETAQTIKK [_ITESVAET(HexNAc (ST))AQTIKK_]” showed a collision cross section (charge state: 2, modification: HexNAc (ST)) of 456.71 ± 0.56 Å² and a collision cross section (charge state: 3, modification: HexNAc (ST)) of 499.78 ± 0.18 Å².

Sequence “SPSDSGYSYETIGKTTK [_SPSDSGYSYETIGK(Crotonyl)TTK_]” has a collision cross section [9] of 455.39 ± 0.82 Å² and a collision cross section [10] of 528.2 ± 1.2 Å².

Sequence GSLEKGSPEDK [_GSLEK(Biotin)GSPEDK_] has a collision cross section (charge state: 2, modification: Biotin) of 382.87 Å².

“TPSSFRQPFTPTSR [_TPSSFR(Methyl (R))QPFTPTSR_]” gave a collision cross section [16] of 481.78 ± 1.9 Å².

For “VFSIISSEKELK [_VFSIISSEK(hydroxyisobutyryl)ELK_]”, the collision cross section [19] was 414.96 ± 0.83 Å².

Sequence ASAISIKLGSSK [_ASAISIK(Malonyl)LGSSK_] has a collision cross section [4] of 370.34 ± 0.77 Å².

In the case of “DYSAPVNFISAGLKK [_DYSAPVNFISAGLK(Malonyl)K_]”, the collision cross section [4] is reported as 442.5 ± 1.7 Å² and the collision cross section [23] is reported as 530.16 Å².

With TTEETSKPK [_TTEETSK(Gluratylation)PK_] the collision cross section [22] was 352.76 ± 0.56 Å².

“ASAISIKLGSSK [_ASAISIK(Dimethyl (K))LGSSK_]” gave a collision cross section [24] of 373.07 ± 0.36 Å² and a collision cross section [6] of 447.62 Å².

With “GTISAPGKVVTAAAQAK [_GTISAPGK(Dimethyl (K))VVTAAAQAK_]” the collision cross section [24] was 470.82 ± 0.68 Å² and the collision cross section [6] was 493.04 ± 1.7 Å².

Work on ASCLYGQLPK [_ASCLY(Nitro (Y))GQLPK_] yielded a collision cross section [3] of 365.43 ± 2.1 Å².

“LLIVSTTPYSEKDTK [_LLIVSTTPYSEK(Succinyl)DTK_]” showed a collision cross section [15] of 458.63 ± 1.1 Å² and a collision cross section (charge state: 3, modification: Succinyl) of 480.04 ± 2.5 Å².

“TTGFYSGFSEVAEKR [_TTGFYSGFSEVAEK(Methyl (K))R_]” gave a collision cross section [11] of 449.23 ± 2.4 Å² and a collision cross section [12] of 510.26 ± 2 Å².

Work on ANAIGRGAK [_ANAIGR(Methyl (R))GAK_] yielded a collision cross section [25] of 322.43 ± 1.8 Å².

With “ANLEKAQAELVGTADEATR [_ANLEK(hydroxyisobutyryl)AQAELVGTADEATR_]” the collision cross section [19] was 473.77 ± 6.8 Å² and the collision cross section [20] was 579.16 ± 1.2 Å².

Work on IQQELQTAKK [_IQQELQTAK(Formyl)K_] yielded a collision cross section [26] of 369.08 ± 0.89 Å².

Sequence ALLQAKASGK [_ALLQAK(Butyryl)ASGK_] has a collision cross section [1] of 352.22 ± 2.3 Å².

Sequence “TGPPGSTGSR [_TGPP(Hydroxyproline)GSTGSR_]” has a collision cross section [21] of 312.97 ± 0.79 Å².

For “GSLEKGSPEDK [_GSLEK(hydroxyisobutyryl)GSPEDK_]”, the collision cross section [19] was 376.24 ± 0.91 Å².

For “VFIGNLNTLVVKK [_VFIGNLNTLVVK(Trimethyl (K))K_]”, the collision cross section (charge state: 2, modification: Trimethyl (K)) was 435.19 ± 1 Å² and the collision cross section (charge state: 3, modification: Trimethyl (K)) was 485.88 ± 1.8 Å².

In the case of “LTSLNVKYNNDK [_LTSLNVK(Gluratylation)YNNDK_]”, the collision cross section [22] is reported as 413.21 ± 1.1 Å².

In the case of “PANEKATDDYHYEK [_PANEK(Formyl)ATDDYHYEK_]”, the collision cross section [26] is reported as 435.25 ± 0.72 Å² and the collision cross section (charge state: 3, modification: Formyl) is reported as 497.77 ± 2.4 Å².

PARGLYSR [_PAR(Methyl (R))GLYSR_] showed a collision cross section [25] of 338.81 ± 0.66 Å² and a collision cross section [16] of 407.19 Å².

Sequence “TQAYQDQKPGTSGLR [_TQAYQDQK(Malonyl)PGTSGLR_]” has a collision cross section [4] of 430.62 ± 0.59 Å² and a collision cross section [23] of 484.2 Å².

“VLTANSNPSSPSAAKR [_VLTANSNPSSPSAAK(Gluratylation)R_]” gave a collision cross section [22] of 432.88 ± 2 Å² and a collision cross section [7] of 532.45 ± 0.12 Å².

“DASTLQSQKAEGTGDAK [_DASTLQSQK(Gluratylation)AEGTGDAK_]” showed a collision cross section [22] of 440.54 ± 1.5 Å² and a collision cross section [7] of 515.28 ± 0.85 Å².

Sequence PSVSTKLISK [_PSVSTK(Succinyl)LISK_] has a collision cross section [15] of 355.43 ± 0.73 Å².

In the case of “SLFFGGKGAPLQR [_SLFFGGK(Crotonyl)GAPLQR_]”, the collision cross section [9] is reported as 404.03 ± 0.35 Å².

“DDIIENAPTTHTEEYSGEEK [_DDIIENAPTTHTEEY(Nitro (Y))SGEEK_]” gave a collision cross section [18] of 553.72 ± 2.2 Å².

IQTKAGEATVK [_IQTK(Malonyl)AGEATVK_] gave a collision cross section [4] of 364.75 ± 0.62 Å².

IGNSYFKEEK [_IGNSYFK(GlyGly (K))EEK_] showed a collision cross section [13] of 386.48 ± 0.54 Å² and a collision cross section [14] of 442.05 ± 1.6 Å².

With DYGNSPLHR [_DY(Phospho (Y))GNSPLHR_] the collision cross section [5] was 345.01 ± 0.066 Å² and the collision cross section [17] was 444.49 Å².

In the case of AYILNLVK [_AY(Nitro (Y))ILNLVK_], the collision cross section [3] is reported as 333.68 ± 0.72 Å².

Sequence ALLQAKASGK [_ALLQAK(Crotonyl)ASGK_] has a collision cross section [9] of 351.6 ± 1.3 Å².

Work on “LQAAYAGDKADDIQK [_LQAAYAGDK(Dimethyl (K))ADDIQK_]” yielded a collision cross section [24] of 436.04 ± 1.1 Å² and a collision cross section [6] of 470.88 ± 1.6 Å².

Work on “GLPGLAGDHGEFGEK [_GLP(Hydroxyproline)GLAGDHGEFGEK_]” yielded a collision cross section [21] of 432.14 ± 0.34 Å² and a collision cross section [8] of 497.67 ± 1.7 Å².
